Test results: patent US20230124669A1

Assays:
[1] = biological target: neonatal Fc receptor FcRn; test: FcRn binding of bispecific antibody; method not stated
[2] = biological target: neonatal Fc receptor FcRn; test: FcRn binding of bispecific antibody at acidic pH; method not stated

Sequence of neonatal Fc receptor FcRn (P55899 24-297, chain 1 of 2): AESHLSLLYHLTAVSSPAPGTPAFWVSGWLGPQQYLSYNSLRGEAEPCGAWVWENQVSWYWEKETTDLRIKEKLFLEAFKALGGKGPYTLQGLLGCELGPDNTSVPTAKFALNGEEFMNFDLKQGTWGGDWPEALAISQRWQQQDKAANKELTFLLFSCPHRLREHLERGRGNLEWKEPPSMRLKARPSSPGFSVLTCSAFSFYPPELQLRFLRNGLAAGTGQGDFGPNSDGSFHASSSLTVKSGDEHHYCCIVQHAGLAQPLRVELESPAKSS
Sequence of neonatal Fc receptor FcRn (P61769 21-119, chain 2 of 2, further chain): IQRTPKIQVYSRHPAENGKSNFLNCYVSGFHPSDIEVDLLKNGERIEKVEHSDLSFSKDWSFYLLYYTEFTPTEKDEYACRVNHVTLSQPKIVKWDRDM

B1: TY21489 (bispecific antibody, part only; not given: rest of both heavy chains, lights, not shown: a dimerising Fc or GST)
heavy, part 1: GQPREPQVYTLPPSRKKLTKNQVKLTCLVKGFYPSDIAVEWESNGQPENNYKTTPPVLDCDGSFFLYSKLTVDKSRWQQGNVFSCSVMHEALHNHYTQKSLSLSPGK
heavy, part 2: GQPREPQVYTDPPSRDELTKNQVSLTCLVDGFYPSDIAVEWESNGQPENCYKTTPPVLDSDGSFFLYSKLTVDKSRWQQGNVFSCSVMHEALHNHYTQDSLSLSPGK
pH dependent FcRn binding/% [1]: 0%
FcRn binding at acidic pH/nM [2]: 53.7 nM
